For test [1], the target named is recombinant human histone octamer (human) (UniProt P0C0S8). In words: SEC; histone chaperone assay: MBP-PELP1 variant and histone octamer mixed at 1:1 or 2:1 in >1.2 M NaCl, dialysed stepwise to 0.3 M NaCl, 10 mM Hepes pH 7.5, 4°C; S200 10/300 gel filtration in the low-salt buffer; SDS-PAGE of fractions. (SEC sorts molecules by how far they enter the pores of the column.)

The target in test [2] is T1, N-terminal 6× His-tagged human SENP3 protease domain (302 to 574aa) (human, UniProt Q9H4L4 302-574).
T1 construct: E. coli codon-optimized gene (Genscript) in pET11a; source: E. coli, purified (His60 Ni resin, S200 gel filtration)
T1 sequence (Q9H4L4 302-574): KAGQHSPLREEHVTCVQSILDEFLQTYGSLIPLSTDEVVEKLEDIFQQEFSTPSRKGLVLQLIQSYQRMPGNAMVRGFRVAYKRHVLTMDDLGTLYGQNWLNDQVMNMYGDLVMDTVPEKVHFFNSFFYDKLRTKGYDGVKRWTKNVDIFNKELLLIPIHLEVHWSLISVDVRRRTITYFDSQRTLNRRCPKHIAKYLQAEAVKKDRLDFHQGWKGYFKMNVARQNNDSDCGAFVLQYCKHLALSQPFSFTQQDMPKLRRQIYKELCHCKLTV
Description: SEC; purified components mixed at equimolar amounts (20 to 80 μM), 4°C for at least 30 min; S200 10/300 analytical column; SDS-PAGE of fractions. Particulars: both partners purified.

Test [3] concerns the target T2, MBP-SENP3^(311–574 C532S), fixed-arm MBP fusion of the SENP3 catalytic domain (human, UniProt Q9H4L4 311-574, C532S).
T2 construct: human SENP3 catalytic domain with the three-helix bundle, Glu311-Val574, catalytic-dead C532S; In the PDB model MBP residues are labeled 1 to 370 and SENP3 residues 1311 to 1574; also called MBP(wt)-SENP3; pMALX(wt)-SENP3 (Glu311-Val574/C532S); source: E. coli Rosetta2 (DE3), purified (amylose resin, Superdex200 SEC); not shown: MBP (fixed-arm fusion, pMALX(wt)), N-terminal, kept
In words: crystal structure; MBP-SENP3 (311-574, C532S) with 1.5x molar excess of sPELP1 peptide; sitting drop, 0.085 to 0.1 M Hepes pH 7.5, 17 to 20% PEG8000, 4°C; 2.93 Å. The settings on record: both partners purified.

Test [4] concerns the target T3, exogenous rixosome subcomplex (PELP1, TEX10, WDR18, and SENP3) purified by GFP-TEX10 wild type (human, UniProt Q9NXF1 1-929; Q8IZL8 1-1130; Q9BV38 1-432; Q9H4L4 1-574).
T3 construct: human TEX10, wild type, bait of the subcomplex; human PELP1, exogenous; human WDR18, exogenous; human SENP3, exogenous; copy numbers in this preparation are not measured; also called immobilized TEX10 rixosome subcomplexes; TEX10 subcomplexes; not shown: GFP, N-terminal, kept; copies: + + +
In words: pull-down; GFP-TEX10 rixosome subcomplexes affinity purified from HEK293FT and kept on anti-GFP Sepharose (ATP and low-salt washes); incubated with recombinant ncPRC1.4 (0.177 mg/ml) in 0.2 ml low-salt buffer (50 mM Hepes pH 7.5, 200 mM NaCl, 5 mM MgCl2, 10% glycerol), 1 hour, 4°C; Western blot. The settings on record: both partners purified.

T2 sequence (Q9H4L4 311-574 C532S): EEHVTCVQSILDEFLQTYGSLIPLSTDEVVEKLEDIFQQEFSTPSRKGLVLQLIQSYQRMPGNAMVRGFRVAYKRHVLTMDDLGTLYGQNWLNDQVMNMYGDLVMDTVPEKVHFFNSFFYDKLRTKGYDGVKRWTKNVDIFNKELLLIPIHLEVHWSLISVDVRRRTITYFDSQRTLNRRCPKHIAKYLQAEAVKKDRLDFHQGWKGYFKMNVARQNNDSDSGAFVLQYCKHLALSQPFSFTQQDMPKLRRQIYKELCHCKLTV
T3 sequence (Q9NXF1 whole entry, chain 1 of 4): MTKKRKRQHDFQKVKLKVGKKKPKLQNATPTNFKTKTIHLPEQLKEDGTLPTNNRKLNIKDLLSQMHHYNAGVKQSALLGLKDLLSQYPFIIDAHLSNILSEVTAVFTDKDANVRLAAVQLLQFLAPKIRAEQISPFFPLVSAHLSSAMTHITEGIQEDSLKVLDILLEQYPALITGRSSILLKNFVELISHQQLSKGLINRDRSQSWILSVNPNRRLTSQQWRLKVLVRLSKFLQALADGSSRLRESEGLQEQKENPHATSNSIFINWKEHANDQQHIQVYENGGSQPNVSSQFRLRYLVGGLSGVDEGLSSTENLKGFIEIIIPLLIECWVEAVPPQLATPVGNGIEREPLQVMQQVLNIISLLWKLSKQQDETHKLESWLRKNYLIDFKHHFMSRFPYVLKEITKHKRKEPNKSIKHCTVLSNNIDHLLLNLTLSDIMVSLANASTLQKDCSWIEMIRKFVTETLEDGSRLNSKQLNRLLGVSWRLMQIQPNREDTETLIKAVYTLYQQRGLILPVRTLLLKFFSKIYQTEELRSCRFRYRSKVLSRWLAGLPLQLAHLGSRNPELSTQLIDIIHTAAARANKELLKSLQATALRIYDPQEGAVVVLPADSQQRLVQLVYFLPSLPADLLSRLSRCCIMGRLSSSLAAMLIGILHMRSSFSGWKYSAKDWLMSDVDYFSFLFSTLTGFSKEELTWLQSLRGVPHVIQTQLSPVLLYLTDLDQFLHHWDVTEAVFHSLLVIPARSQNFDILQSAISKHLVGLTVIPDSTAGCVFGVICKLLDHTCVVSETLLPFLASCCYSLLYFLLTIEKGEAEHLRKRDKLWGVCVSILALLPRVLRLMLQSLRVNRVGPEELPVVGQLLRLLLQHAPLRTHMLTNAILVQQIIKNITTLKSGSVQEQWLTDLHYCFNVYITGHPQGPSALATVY
T3 sequence (Q8IZL8 whole entry, chain 2 of 4): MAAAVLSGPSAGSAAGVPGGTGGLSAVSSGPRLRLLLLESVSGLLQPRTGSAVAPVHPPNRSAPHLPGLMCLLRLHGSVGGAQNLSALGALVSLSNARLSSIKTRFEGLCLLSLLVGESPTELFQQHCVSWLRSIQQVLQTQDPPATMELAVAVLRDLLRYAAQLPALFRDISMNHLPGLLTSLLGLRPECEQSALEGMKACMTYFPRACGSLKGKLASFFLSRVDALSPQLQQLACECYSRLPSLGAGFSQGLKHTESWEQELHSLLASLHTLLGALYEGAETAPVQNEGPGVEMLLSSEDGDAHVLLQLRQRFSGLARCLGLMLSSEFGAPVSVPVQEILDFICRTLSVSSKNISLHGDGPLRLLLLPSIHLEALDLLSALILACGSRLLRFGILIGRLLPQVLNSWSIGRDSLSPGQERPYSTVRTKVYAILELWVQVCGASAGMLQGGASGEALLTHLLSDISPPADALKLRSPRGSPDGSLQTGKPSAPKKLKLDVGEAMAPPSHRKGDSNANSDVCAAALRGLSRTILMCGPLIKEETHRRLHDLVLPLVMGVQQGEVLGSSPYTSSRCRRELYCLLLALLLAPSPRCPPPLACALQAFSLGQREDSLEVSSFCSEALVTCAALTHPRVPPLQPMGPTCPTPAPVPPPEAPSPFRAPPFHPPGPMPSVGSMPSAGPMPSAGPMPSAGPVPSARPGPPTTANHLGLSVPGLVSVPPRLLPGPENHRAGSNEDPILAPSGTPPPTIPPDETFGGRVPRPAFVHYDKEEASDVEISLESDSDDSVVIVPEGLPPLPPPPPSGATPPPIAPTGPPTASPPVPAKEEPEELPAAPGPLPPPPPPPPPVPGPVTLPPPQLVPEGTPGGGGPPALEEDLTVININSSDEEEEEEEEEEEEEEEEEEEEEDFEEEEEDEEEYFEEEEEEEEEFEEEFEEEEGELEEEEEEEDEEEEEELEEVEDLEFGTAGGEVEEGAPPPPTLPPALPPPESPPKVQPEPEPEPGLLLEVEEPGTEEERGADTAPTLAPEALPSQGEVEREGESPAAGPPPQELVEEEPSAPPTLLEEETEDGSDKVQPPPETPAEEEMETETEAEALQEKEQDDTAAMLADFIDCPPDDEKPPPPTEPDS
T3 sequence (Q9BV38 whole entry, chain 3 of 4): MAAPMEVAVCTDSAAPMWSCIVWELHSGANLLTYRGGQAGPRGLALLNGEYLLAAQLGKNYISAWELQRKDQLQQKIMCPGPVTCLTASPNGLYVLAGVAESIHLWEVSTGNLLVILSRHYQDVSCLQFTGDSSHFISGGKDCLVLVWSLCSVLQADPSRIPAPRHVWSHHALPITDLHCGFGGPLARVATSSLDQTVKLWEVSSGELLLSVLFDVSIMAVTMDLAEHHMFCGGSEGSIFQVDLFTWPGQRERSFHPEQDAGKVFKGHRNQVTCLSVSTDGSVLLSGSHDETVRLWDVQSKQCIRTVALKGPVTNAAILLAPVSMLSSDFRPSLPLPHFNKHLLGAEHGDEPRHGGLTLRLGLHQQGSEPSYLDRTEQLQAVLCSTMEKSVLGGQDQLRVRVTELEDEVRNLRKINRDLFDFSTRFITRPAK
T3 sequence (Q9H4L4 whole entry, chain 4 of 4): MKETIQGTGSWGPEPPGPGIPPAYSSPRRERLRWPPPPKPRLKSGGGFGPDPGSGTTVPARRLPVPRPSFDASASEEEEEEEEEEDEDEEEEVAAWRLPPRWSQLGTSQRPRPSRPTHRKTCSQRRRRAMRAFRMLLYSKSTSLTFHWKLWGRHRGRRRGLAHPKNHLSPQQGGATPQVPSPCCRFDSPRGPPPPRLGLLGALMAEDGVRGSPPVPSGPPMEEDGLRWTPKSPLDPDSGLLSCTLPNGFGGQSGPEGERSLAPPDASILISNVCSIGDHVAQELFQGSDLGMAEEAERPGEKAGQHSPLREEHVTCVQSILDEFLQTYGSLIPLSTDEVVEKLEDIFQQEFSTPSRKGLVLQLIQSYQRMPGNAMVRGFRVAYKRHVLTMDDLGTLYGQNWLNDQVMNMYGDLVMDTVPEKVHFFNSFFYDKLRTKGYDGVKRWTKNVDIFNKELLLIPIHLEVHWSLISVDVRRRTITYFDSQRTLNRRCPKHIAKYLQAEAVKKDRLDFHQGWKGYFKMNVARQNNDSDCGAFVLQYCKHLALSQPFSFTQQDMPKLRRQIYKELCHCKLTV

On to “MBP-PELP1^800–1130 (from UniProt Q8IZL8 800-1130) (domain or fragment)”, for which the stoichiometry N (copies per histone octamer) in test [1] came to 2.
For the molecule “MBP-PELP1^887–966 (from UniProt Q8IZL8 887-966) (domain or fragment)”, the stoichiometry N (copies per histone octamer) in test [1] is 2.

B1: 6×-HIS-MBP-PELP1 761 to 796aa (SENP3 binding motif peptide) (domain or fragment, human, UniProt Q8IZL8 761-796, looked up)
chain: PRPAFVHYDKEEASDVEISLESDSDDSVVIVPEGLP
notes: human PELP1 IDR, residues 761 to 796 with the SLiM; legends and the purification paragraph print 761 to 796aa; also called MBP-PELP1^SLiM; PELP1^SLiM-containing peptide 761 to 796aa; source: E. coli, purified (His60 Ni resin, S200 gel filtration); not shown: MBP, N-terminal, kept
In the case of B1, in test [2], the binding result is reported as “binds”.

B2: sPELP1 peptide (PELP1 residues Ala764-Glu781) (peptide, UniProt Q8IZL8 764-781, looked up)
peptide: AFVHYDKEEASDVEISLE
notes: also called short (s) PELP1; PELP1^SLiM peptide (764 to 781aa); source: synthetic peptide (GenScript)
Regarding B2, the binding result in test [3] is recorded as “binds”.

B3: recombinant human noncanonical PRC1.4 complex (RING1B-BMI1-RYBP) (complex)
chain 1: MSQAVQTNGTQPLSKTWELSLYELQRTPQEAITDGLEIVVSPRSLHSELMCPICLDMLKNTMTTKECLHRFCADCIITALRSGNKECPTCRKKLVSKRSLRPDPNFDALISKIYPSRDEYEAHQERVLARINKHNNQQALSHSIEEGLKIQAMNRLQRGKKQQIENGSGAEDNGDSSHCSNASTHSNQEAGPSNKRTKTSDDSGLELDNNNAAMAIDPVMDGASEIELVFRPHPTLMEKDDSAQTRYIKTSGNATVDHLSKYLAVRLALEELRSKGESNQMNLDTASEKQYTIYIATASGQFTVLNGSFSLELVSEKYWKVNKPMELYYAPTKEHK
chain 2: MHRTTRIKITELNPHLMCVLCGGYFIDATTIIECLHSFCKTCIVRYLETSKYCPICDVQVHKTRPLLNIRSDKTLQDIVYKLVPGLFKNEMKRRRDFYAAHPSADAANGSNEDRGEVADEDKRIITDDEIISLSIEFFDQNRLDRKVNKDKEKSKEEVNDKRYLRCPAAMTVMHLRKFLRSKMDIPNTFQIDVMYEEEPLKDYYTLMDIAYIYTWRRNGPLPLKYRVRPTCKRMKISHQRDGLTNAGELESDSGSDKANSPAGGIPSTSSCLPSPSTPVQSPHPQFPHISSTMNGTSNSPSGNHQSSFANRPRKSSVNGSSATSSG
chain 3: MTMGDKKSPTRPKRQAKPAADEGFWDCSVCTFRNSAEAFKCSICDVRKGTSTRKPRINSQLVAQQVAQQYATPPPPKKEKKEKVEKQDKEKPEKDKEISPSVTKKNTNKKTKPKSDILKDPPSEANSIQSANATTKTSETNHTSRPRLKNVDRSTAQQLAVTVGNVTVIITDFKEKTRSSSTSSSTVTSSAGSEQQNQSSSGSESTDKGSSRSSTPKGDMSAVNDESF
notes: human RING1B, full length; human BMI1, full length; human RYBP, full length; also called ncPRC1.4; not shown: SUMO-10xHis, N-terminal, cleaved; copies: + +
For B3, the binding result in test [4] is given as “binds”.

Values taken from publication PMC12292926, “PELP1 coordinates the modular assembly and enzymatic activity of the rixosome complex” (Science Advances, 2025).
